Reference: article PMC4245398

Target: vimentin (UniProt P08670)
Assay: co-immunoprecipitation, FAK-FLAG and endogenous vimentin
Settings: reference: WT FAK-FLAG; sites Y397

## focal adhesion kinase (FAK) (from UniProt Q05397) Y397F FAK-FLAG
  binding against the reference: weaker
